# The supplement of paper PMC7125110
# ± gives the standard error. Variants at the floor of the assay were thinned out.
# B1: glmS ribozyme (parent)
# chain: AUAAAAGCGCCAGAACUACAGAAAUGUAGUUGACGAGGAGGAGGUUUAUCGAAUUUUCGGCGGAUGCCUCCAAA
# Variants of: B1
# Assay: self-cleavage kobs at 2500 uM GlcN6P; higher = faster cleavage; RNA array
# Conditions: with glucosamine-6-phosphate
# Method in brief: (§1)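 Barcoded ribozyme variants were transcribed in situ on sequenced MiSeq chips by E. coli RNA polymerase. At 37 °C, a hybridised Cy3 probe tracked them while glucosamine-6-phosphate (40 μM to 10 mM) in HEPES/KCl/Mg(OAc)2 buffer flowed in and tiles were imaged over ~14 h. Per-tile medians of signals normalised to baseline and to non-cleaving reference variants were fit to one- or two-exponential decays, giving kobs. kcat and KM came from weighted Michaelis–Menten fits across concentrations.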
row,Variant,self-cleavage kobs at 2500 uM GlcN6P
1,U46G U47A C71A,0.00116 ± 0.00028 s⁻¹
2,A15U G41A C50G C71U,< 1e-05 s⁻¹
3,U49C C68U,< 1e-05 s⁻¹
4,A12U A15U C50G C70G,0.000215 ± 5.7e-05 s⁻¹
5,A15G A39U A64C,0.000106 ± 2.7e-05 s⁻¹
6,C16A G66A C68U,6.12e-05 ± 1.5e-05 s⁻¹
7,A39G G40U A52G,6.69e-05 ± 2.4e-05 s⁻¹
8,A36C U49A U56A,< 1e-05 s⁻¹
9,A33G A53C U65A C67U,< 1e-05 s⁻¹
10,G9U G38C U54G G62C,< 1e-05 s⁻¹
11,G9U A36G C61G C67U,< 1e-05 s⁻¹
12,A33G G37A A52U,< 1e-05 s⁻¹
13,A39C U54A U55C,0.00249 ± 0.00052 s⁻¹
14,U31A A52G C70G,5.02e-05 ± 1.1e-05 s⁻¹
15,C16G G51U U57G,< 1e-05 s⁻¹
16,A15U U30C U31C G40U A64U G66A,< 1e-05 s⁻¹
17,C8A U57C C70G C71U,< 1e-05 s⁻¹
18,U30G G43C A48C,< 1e-05 s⁻¹
19,A12C G35U A36G U65G,< 1e-05 s⁻¹
20,A6U C11G G44C C68G,< 1e-05 s⁻¹
21,A14C U54A U55A,0.00221 ± 0.00054 s⁻¹
22,G35A A36U G44A A52G C61G C67A,< 1e-05 s⁻¹

row,Variant,self-cleavage kobs at 2500 uM GlcN6P
1,A52U A53G A64G,5.47e-05 ± 1.7e-05 s⁻¹
2,G43C U46G C58A,< 1e-05 s⁻¹
3,C8G A48U G62A,< 1e-05 s⁻¹
4,A52G U57C C67U,0.000161 ± 7.8e-05 s⁻¹
5,A12G U49G A64G,9.53e-05 ± 2.8e-05 s⁻¹
6,U45A G51U U54G G63C,< 1e-05 s⁻¹
7,G7C C34A U57C G63C,< 1e-05 s⁻¹
8,C16A U30A U65A,5.07e-05 ± 1.8e-05 s⁻¹
9,G13A A52U U54C,< 1e-05 s⁻¹
10,A14U U30C A53C,< 1e-05 s⁻¹
11,G43U G44U G60A A64G C67A C71G,< 1e-05 s⁻¹
12,C11U A12G U31G,0.000738 ± 0.00012 s⁻¹
13,G59A U69C C70U,< 1e-05 s⁻¹
14,A6G G44A A52U C61U G62A C70G C71U,< 1e-05 s⁻¹
15,C11A A12U G35U C50G,0.000171 ± 4.2e-05 s⁻¹
16,C16A G41A A42U,< 1e-05 s⁻¹
17,A6U C10A C11G G35U,< 1e-05 s⁻¹
18,A14C G26U G62U C68U,< 1e-05 s⁻¹
19,G37A U56C,0.000299 ± 7.3e-05 s⁻¹
20,A14G A15U U31G G43U U45A,< 1e-05 s⁻¹
21,U31C U45A U57C,4.12e-05 ± 1.4e-05 s⁻¹
22,A14C G43U C61A,< 1e-05 s⁻¹

row,Variant,self-cleavage kobs at 2500 uM GlcN6P
1,G7U G35U G44U,< 1e-05 s⁻¹
2,G9U U31G G66U C71U,< 1e-05 s⁻¹
3,A14C A39U G43U A64U,< 1e-05 s⁻¹
4,U30A A33U A39G G44C U47G A52U,< 1e-05 s⁻¹
5,A39U A48U C67G,0.00017 ± 6.1e-05 s⁻¹
6,A6G G29C A33C U47G,< 1e-05 s⁻¹
7,A12G C16G C68G,0.00102 ± 0.0005 s⁻¹
8,A36C G43C G51C C61A C71U,< 1e-05 s⁻¹
9,A33G U47A A53G C70U,< 1e-05 s⁻¹
10,A33C U54C C67G C68G C70U,< 1e-05 s⁻¹
11,G32A A42U U46C,< 1e-05 s⁻¹
12,G29C A39C A48U U49C U57A G60A C61A C67A,< 1e-05 s⁻¹
13,U45G A64U C68U,< 1e-05 s⁻¹
14,C10G A42G A48C,< 1e-05 s⁻¹
15,U31G A36C G38A G40A,< 1e-05 s⁻¹
16,G51U C68U C71U,< 1e-05 s⁻¹
17,A12U U49G G59C,< 1e-05 s⁻¹
18,U49C U55A G62C,< 1e-05 s⁻¹
19,C11U A42G U54G G66A,0.000265 ± 7.1e-05 s⁻¹
20,G9A G40U G62U A64U,< 1e-05 s⁻¹
21,A15U U31A C70A,6.54e-05 ± 2.7e-05 s⁻¹
22,A15C G37U A39C G41A G63U G66C,< 1e-05 s⁻¹

row,Variant,self-cleavage kobs at 2500 uM GlcN6P
1,G7A C8U C10U A12C A36C U49G G60C A64U,< 1e-05 s⁻¹
2,C34G G35U G43U,< 1e-05 s⁻¹
3,G13A G32U A39U,4.61e-05 ± 8.8e-06 s⁻¹
4,U49G U54G C68G,6.25e-05 ± 2.4e-05 s⁻¹
5,G38U A48G U55C C67G,< 1e-05 s⁻¹
6,C10U A53G C61A C67G,8.38e-05 ± 4.1e-05 s⁻¹
7,A14G A36C U54C,< 1e-05 s⁻¹
8,A15U C16U A33U A42U U57G G62C A64U,< 1e-05 s⁻¹
9,A6U C10G C50G A52G U55A C68A,0.000313 ± 7.4e-05 s⁻¹
10,G35U G41U G62A,< 1e-05 s⁻¹
11,U54G C68U C70U,0.00037 ± 6.8e-05 s⁻¹
12,G7A U46C A52U C58A,< 1e-05 s⁻¹
13,A39G G44U A53G,0.000722 ± 0.00021 s⁻¹
14,A15G G51A U57C,< 1e-05 s⁻¹
15,G13U U30C G32C,6.71e-05 ± 2.9e-05 s⁻¹
16,G29C U31C C70A,7.34e-05 ± 3.4e-05 s⁻¹
17,A12G U55A U69G,0.000115 ± 3e-05 s⁻¹
18,A12U C50G G66C C70A,5.12e-05 ± 2e-05 s⁻¹
19,G35C C68U C71A,< 1e-05 s⁻¹

# Variants of: B1
# Assay: self-cleavage kobs at 10000 uM GlcN6P; higher = faster cleavage; RNA array
# Conditions: with glucosamine-6-phosphate
# Method in brief: as §1
row,Variant,self-cleavage kobs at 10000 uM GlcN6P
1,A14G U56C U69C,0.000368 ± 9.1e-05 s⁻¹
2,C11A U30C A39C G59U,0.000272 ± 6.2e-05 s⁻¹
3,U54A G60A,3.42e-05 ± 1.5e-05 s⁻¹
4,G37A G51U C68G,< 1e-05 s⁻¹
5,A48G G66A,2.4e-05 ± 1.2e-05 s⁻¹
6,C10A C11U G38C U55C C61A A64U,< 1e-05 s⁻¹
7,C50A U55G U57C,< 1e-05 s⁻¹
8,U46A C68A C71A,< 1e-05 s⁻¹
9,U31A A52G C70G,6.16e-05 ± 1.8e-05 s⁻¹
10,A15G U30G G40U,0.000863 ± 0.00017 s⁻¹
11,G32U U56A C58A C68A,0.000114 ± 2.2e-05 s⁻¹
12,G9U G59C G63C,< 1e-05 s⁻¹
13,C10G G29A U65C,< 1e-05 s⁻¹
14,C16A G29A C50A G59A C71U,< 1e-05 s⁻¹
15,C16G A39U U47A C50G,< 1e-05 s⁻¹
16,G13U G37A C50U U69A,< 1e-05 s⁻¹
17,A14C C58U,8.12e-05 ± 1.2e-05 s⁻¹
18,A33G U47A C70U,< 1e-05 s⁻¹
19,A36G A64G C70G,< 1e-05 s⁻¹
20,A18C A33C,0.000165 ± 4.4e-05 s⁻¹
21,A12C A15U C58G,0.00016 ± 3.5e-05 s⁻¹
22,U30C A53G G66A,8.63e-05 ± 2.1e-05 s⁻¹

row,Variant,self-cleavage kobs at 10000 uM GlcN6P
1,A39G C61A G62U,< 1e-05 s⁻¹
2,G44A U65G C67U,0.00292 ± 0.00045 s⁻¹
3,G44U U54C,0.000226 ± 5e-05 s⁻¹
4,A52G U57C C67U,0.000116 ± 2.5e-05 s⁻¹
5,G40C A53U C61A,< 1e-05 s⁻¹
6,A12G U49G A64G,7.02e-05 ± 2e-05 s⁻¹
7,A39U U47A C67U,0.00456 ± 0.0007 s⁻¹
8,C10A U45A A52U,< 1e-05 s⁻¹
9,C11G A64C C67G,< 1e-05 s⁻¹
10,C8G C10G G40U A52C,< 1e-05 s⁻¹
11,G29U A53C G66A,0.000258 ± 4.6e-05 s⁻¹
12,A6U U54C C71U,0.000136 ± 2.2e-05 s⁻¹
13,G7U G13U C16U C50G U56G G66U,3.32e-05 ± 1.5e-05 s⁻¹
14,G37C G51A U69A,< 1e-05 s⁻¹
15,C11U A12G U31G,0.00126 ± 0.0003 s⁻¹
16,A39G G44U C71U,3.94e-05 ± 1.7e-05 s⁻¹
17,G32A G40U C67U,< 1e-05 s⁻¹
18,G29A G40U C68G,< 1e-05 s⁻¹
19,C34A U46A G51A,< 1e-05 s⁻¹
20,G13A G35A G60U C70A,< 1e-05 s⁻¹
21,A6U U55A C70U,0.000254 ± 6.5e-05 s⁻¹
22,C34U G38A C70G,3.44e-05 ± 1.7e-05 s⁻¹

row,Variant,self-cleavage kobs at 10000 uM GlcN6P
1,A12C U69A C71U,4.87e-05 ± 1.6e-05 s⁻¹
2,G37A U56C,0.000401 ± 5.4e-05 s⁻¹
3,G35U U45G C67G,< 1e-05 s⁻¹
4,C11G U25C A53U A64U,< 1e-05 s⁻¹
5,G38U A52U C58U,< 1e-05 s⁻¹
6,C8U G37C C50G A53U C67A,0.000441 ± 0.00011 s⁻¹
7,C8U G37C C50A G59C A64C,< 1e-05 s⁻¹
8,C8G U30G G40A,< 1e-05 s⁻¹
9,A12U A14C U31C,0.00145 ± 0.00047 s⁻¹
10,G32A U45G U49G C71G,< 1e-05 s⁻¹
11,A39U A48U C67G,0.000104 ± 1.6e-05 s⁻¹
12,C16A U55A C67G,5.54e-05 ± 1.9e-05 s⁻¹
13,G51C A52U U57C G59U,< 1e-05 s⁻¹
14,G37C G63U,< 1e-05 s⁻¹
15,C8A A15U C70U,< 1e-05 s⁻¹
16,G7U G26U A52C,< 1e-05 s⁻¹
17,A12C A64U,3.59e-05 ± 5.3e-06 s⁻¹
18,G7A C11U C61U U65G C68A,0.000318 ± 0.0001 s⁻¹
19,A12G C61A,< 1e-05 s⁻¹
20,A39C G51A C58U G62U,< 1e-05 s⁻¹
21,G66A C68U C71A,0.000105 ± 1.9e-05 s⁻¹
22,U54C G59A,8.08e-05 ± 1.3e-05 s⁻¹

row,Variant,self-cleavage kobs at 10000 uM GlcN6P
1,G29A A33C G41C C70U,< 1e-05 s⁻¹
2,C8G A14U A52C G59C C71U,< 1e-05 s⁻¹
3,A6C C8U G9C C67U,< 1e-05 s⁻¹
4,G7A C8U U56C,< 1e-05 s⁻¹
5,G29A C34G C67A,< 1e-05 s⁻¹
6,G35C U45A C58G,< 1e-05 s⁻¹
7,G35U G41U G62A,< 1e-05 s⁻¹
8,A36U C68G C71U,5.72e-05 ± 2.3e-05 s⁻¹
9,A6G U30G C68G,< 1e-05 s⁻¹
10,A6G C11U C34A,< 1e-05 s⁻¹
11,A39G G44U A53G,0.000935 ± 0.00017 s⁻¹
12,G9C A36C G43A U47A,< 1e-05 s⁻¹
13,A12U A64U C67U,0.00017 ± 3e-05 s⁻¹
14,C11U A12U U46G C70U,0.000953 ± 0.00017 s⁻¹
15,G35C U45G U47A U65C,< 1e-05 s⁻¹
16,G32U U49G A64G,0.000122 ± 2.8e-05 s⁻¹
17,G44C U56G,5.6e-05 ± 1.2e-05 s⁻¹
18,A28G A52U A53G,9e-05 ± 1.6e-05 s⁻¹
19,C16U G35C C58A,< 1e-05 s⁻¹
20,C11G G32U G41U G43U A52C C67A U69A,< 1e-05 s⁻¹
21,G35U A53U U56A,< 1e-05 s⁻¹
